Target: T1, murine ITK (endogenous, mouse thymocytes and CD4 T cells) (mouse, UniProt Q03526 1-625)
T1 construct: Endogenous protein of BALB/c mouse cells; also called endogenous ITK
T1 sequence: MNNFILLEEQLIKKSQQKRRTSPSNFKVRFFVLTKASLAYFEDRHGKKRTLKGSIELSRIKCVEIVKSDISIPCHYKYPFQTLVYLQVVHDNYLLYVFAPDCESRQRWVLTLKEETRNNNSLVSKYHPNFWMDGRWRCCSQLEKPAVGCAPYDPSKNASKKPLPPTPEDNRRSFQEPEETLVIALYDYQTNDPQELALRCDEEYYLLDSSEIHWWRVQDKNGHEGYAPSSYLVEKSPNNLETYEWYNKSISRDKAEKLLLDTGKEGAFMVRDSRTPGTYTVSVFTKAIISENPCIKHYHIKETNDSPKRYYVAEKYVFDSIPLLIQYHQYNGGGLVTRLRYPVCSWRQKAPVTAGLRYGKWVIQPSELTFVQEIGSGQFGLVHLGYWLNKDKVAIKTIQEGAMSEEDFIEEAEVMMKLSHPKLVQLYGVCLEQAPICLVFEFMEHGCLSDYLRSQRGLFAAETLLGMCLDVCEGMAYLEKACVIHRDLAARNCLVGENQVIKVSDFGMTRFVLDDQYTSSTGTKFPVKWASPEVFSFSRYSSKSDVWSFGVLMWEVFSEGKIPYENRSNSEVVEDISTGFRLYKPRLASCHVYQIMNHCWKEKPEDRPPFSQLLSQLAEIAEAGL
Assay: IP of T-bet (4B10) from mouse thymocyte nuclear extracts, anti-ITK (2F12) blot
Method: Most important, it was determined whether ITK interacted with T-bet under physiological conditions, by determining endogenous association in primary thymocytes. Single cell suspensions were obtained from thymi of BALB/c wt, T-bet^{-/-} and ITK−/− mice and nuclear extracts were prepared with NE-PER (Pierce, Rockford) according to the manufacturer's instructions. Two mg of nuclear extracts were incubated with anti-T-bet mAb, 4B10, in 150 mM NaCl. Immune complexes were resolved and probed with anti-ITK mAb (2F12), and sequentially with 4B10 after stripping. ITK expression was assayed in 30 μg of nuclear extracts. Initial attempts to perform coimmunoprecipitation experiments in naïve Thp cells 24 and 48 hours after TCR stimulation failed, likely secondary to both the low levels of endogenous T-bet expressed at this early time point and the competing processes of phosphorylation and dephosphorylation occurring in activated cells.

- binding result: binds
B1: murine T-bet (endogenous, mouse thymocytes and Thp cells) (other, UniProt Q9JKD8 1-530, looked up)
chain: MGIVEPGCGDMLTGTEPMPSDEGRGPGADQQHRFFYPEPGAQDPTDRRAGSSLGTPYSGGALVPAAPGRFLGSFAYPPRAQVAGFPGPGEFFPPPAGAEGYPPVDGYPAPDPRAGLYPGPREDYALPAGLEVSGKLRVALSNHLLWSKFNQHQTEMIITKQGRRMFPFLSFTVAGLEPTSHYRMFVDVVLVDQHHWRYQSGKWVQCGKAEGSMPGNRLYVHPDSPNTGAHWMRQEVSFGKLKLTNNKGASNNVTQMIVLQSLHKYQPRLHIVEVNDGEPEAACSASNTHVFTFQETQFIAVTAYQNAEITQLKIDNNPFAKGFRENFESMYASVDTSVPSPPGPNCQLLGGDPFSPLLSNQYPVPSRFYPDLPGQPKDMISQPYWLGTPREHSYEAEFRAVSMKPTLLPSAPGPTVPYYRGQDVLAPGAGWPVAPQYPPKMSPAGWFRPMRTLPMDPGLGSSEEQGSSPSLWPEVTSLQPEPSDSGLGEGDTKRRRISPYPSSGDSSSPAGAPSPFDKETEGQFYNYFPN
notes: mature; Endogenous protein in nuclear extracts; also called endogenous T-bet
